Measured values reported in patent EP4745153A1, “GLP-1, GIP AND GCG RECEPTOR […] USE THEREOF” (Jiangsu Hengrui Pharmaceuticals Co., Ltd., priority 2023, dated 2025).
Starred links: 1 amine or outer side, 2 acyl side, 3 side chain; linkers in the order of their positions; H or OH if unused. Non-standard residues stand in square brackets, D forms with d. Groups on a side chain read outwards from the residue. No end group written: not given here. *: point of attachment. C20 diacid = O=C(O)CCCCCCCCCCCCCCCCCCC(=O)*; γGlu = O=C(O)[C@H](CCC(=O)[*:2])N[*:1]; αMeK = C[C@](N)(CCCCN)C(=O)O; αMeS = C[C@](N)(CO)C(=O)O; AEEA = NCCOCCOCC(=O)O; Aib = CC(C)(N)C(=O)O

How the values were obtained:
Experiment in all cases: cell-based or functional assay
[1] = target: human glucagon-like peptide-1 receptor (human, UniProt P43220 24-463)
[2] = target: T1, human glucose-dependent insulinotropic polypeptide receptor (human, UniProt P48546 22-466)
T1 sequence (looked up): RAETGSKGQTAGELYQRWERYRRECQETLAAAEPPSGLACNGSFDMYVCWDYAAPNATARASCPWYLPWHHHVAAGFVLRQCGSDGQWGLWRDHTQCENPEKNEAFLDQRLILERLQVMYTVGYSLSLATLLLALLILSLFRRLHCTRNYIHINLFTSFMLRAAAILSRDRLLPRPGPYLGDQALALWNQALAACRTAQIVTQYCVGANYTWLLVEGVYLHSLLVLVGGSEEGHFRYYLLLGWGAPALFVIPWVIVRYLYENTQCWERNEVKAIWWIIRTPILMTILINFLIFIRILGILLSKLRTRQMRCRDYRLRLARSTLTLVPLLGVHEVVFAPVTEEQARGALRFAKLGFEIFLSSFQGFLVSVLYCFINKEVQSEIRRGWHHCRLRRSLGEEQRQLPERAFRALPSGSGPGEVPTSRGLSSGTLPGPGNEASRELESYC

human glucagon receptor = human glucagon receptor (human, UniProt P47871 26-477)
Chain of human glucagon receptor (P47871 26-477): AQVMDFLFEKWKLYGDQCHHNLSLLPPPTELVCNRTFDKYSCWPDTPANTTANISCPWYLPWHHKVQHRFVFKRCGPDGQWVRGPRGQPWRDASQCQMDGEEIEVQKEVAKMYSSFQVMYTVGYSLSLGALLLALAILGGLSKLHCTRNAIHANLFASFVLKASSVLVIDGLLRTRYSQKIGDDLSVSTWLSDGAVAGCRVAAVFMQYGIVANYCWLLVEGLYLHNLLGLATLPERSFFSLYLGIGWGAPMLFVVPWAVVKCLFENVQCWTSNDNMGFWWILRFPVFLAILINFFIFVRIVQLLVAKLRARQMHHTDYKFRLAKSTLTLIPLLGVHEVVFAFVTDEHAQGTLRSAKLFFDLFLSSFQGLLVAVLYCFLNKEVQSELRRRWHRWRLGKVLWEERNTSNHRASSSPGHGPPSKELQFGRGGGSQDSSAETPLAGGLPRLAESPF

B1: Compound No. 0126 (peptide)
peptide: H[Aib]HGTFTSDYS[αMeK]LLEK([AEEA-AEEA-γGlu-C20 diacid])KAA[αMeS]EFVEWLIEGGPSSGAPPPS-NH2
modifications: N-terminus assumed
SMILES: CC[C@H](C)[C@H](NC(=O)[C@H](CC(C)C)NC(=O)[C@H](Cc1c[nH]c2ccccc12)NC(=O)[C@H](CCC(=O)O)NC(=O)[C@@H](NC(=O)[C@H](Cc1ccccc1)NC(=O)[C@H](CCC(=O)O)NC(=O)[C@](C)(CO)NC(=O)[C@H](C)NC(=O)[C@H](C)NC(=O)[C@H](CCCCN)NC(=O)[C@H](CCCCNC(=O)COCCOCCNC(=O)COCCOCCNC(=O)CC[C@H](NC(=O)CCCCCCCCCCCCCCCCCCC(=O)O)C(=O)O)NC(=O)[C@H](CCC(=O)O)NC(=O)[C@H](CC(C)C)NC(=O)[C@H](CC(C)C)NC(=O)[C@](C)(CCCCN)NC(=O)[C@H](CO)NC(=O)[C@H](Cc1ccc(O)cc1)NC(=O)[C@H](CC(=O)O)NC(=O)[C@H](CO)NC(=O)[C@@H](NC(=O)[C@H](Cc1ccccc1)NC(=O)[C@@H](NC(=O)CNC(=O)[C@H](Cc1c[nH]cn1)NC(=O)C(C)(C)NC(=O)[C@@H](N)Cc1c[nH]cn1)[C@@H](C)O)[C@@H](C)O)C(C)C)C(=O)N[C@@H](CCC(=O)O)C(=O)NCC(=O)NCC(=O)N1CCC[C@H]1C(=O)N[C@@H](CO)C(=O)N[C@@H](CO)C(=O)NCC(=O)N[C@@H](C)C(=O)N1CCC[C@H]1C(=O)N1CCC[C@H]1C(=O)N1CCC[C@H]1C(=O)N[C@@H](CO)C(N)=O
[1]
  Activity against human GLP-1R (EC50 nM): 0.008 nM
[2]
  Activity against human GIPR (EC50 nM): 0.002 nM
Human glucagon receptor
  Activity against human GCGR (EC50 nM): 0.008 nM
